From the supplement of paper PMC12042874
± gives the uncertainty stated by the source.

Assay: amyloid nucleation score (Sup35N fusion, yeast selection) (log enrichment); library NNK3; higher = more nucleation; inactive = no reads after selection
Summary of the method: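 DiMSum was used to calculate nucleation scores as log enrichment of output over input reads, centred on the mode score of non-aggregating sequences. Sequences with fewer than 100 input reads were not scored. Input and output came from Illumina sequencing of plasmid inserts in psi-negative yeast expressing peptides of 20 random codons fused to Sup35N, induced 24 hours with 100 μM copper sulfate and then grown 7 days at 30°C on medium lacking adenine and uracil.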

Row | Substance | amyloid nucleation score
1 | QHRSESIFFVIKSLLLRGCI | inactive
2 | VDIGTYMFKMTHADRWVDHG | inactive
3 | WYYCRLRACVRH | inactive
4 | AGNGPLSIYPMILMWMRVGR | inactive
5 | FGRFVMERLTS | inactive
6 | ICPIMNCVFFHRTDQSLSFN | 2.29 ± 0.05
7 | DYTRKVHTIEGSSYYWLNFS | 1.36 ± 0.078
8 | TVSYSQPVWSMDFIVGYLGV | inactive
9 | KWYQVGSVLKRIRLNILRG | -1.51 ± 2.4
10 | GGLEVMSLITT | inactive
11 | SSWDGLKRL | inactive
12 | VVVKKSVVDAWSAYYFRLFV | inactive
13 | EDLVLRIDSTAACAELEKWL | inactive
14 | DLMTMSYRLMIIFLVDTWPR | inactive
15 | PFLYGRYFVAISNS | inactive
16 | SSASYVHCDFYIFGGLAPSN | 2.8 ± 0.063
17 | LYSSLCRGWLCRISISTRAP | inactive
18 | GLLSPRTGCD | inactive
19 | MNSVHYNDHPHDAVKFTISI | inactive
20 | GYTDRLVLNRKGGQYGGFEN | inactive
21 | DTWMST | inactive
22 | IWENNSIML | inactive
23 | FIIPSSMTHMARKNIVRAW | inactive

Row | Substance | amyloid nucleation score
24 | CIICFGPRNFESRRKQPDWR | inactive
25 | FRSFIGKNHEKRSVILCILE | inactive
26 | YLRGY | inactive
27 | ARAYRDQGWPEKEIAQHK | inactive
28 | LKIFKCI | inactive
29 | WCMFMMSNWRVRPADLFCIS | inactive
30 | IYGSASNYMFILGIDRSRWA | 1.14 ± 0.15
31 | YYFTFFIKCMRNIMVNSMAA | inactive
32 | PGREIVVPHFR | inactive
33 | YWNFYSSNLYWT | inactive
34 | HAKADL | inactive
35 | MYTMSHSGLVLALFDAGSWR | inactive
36 | TICPTFPVGGMNISNGSYTM | inactive
37 | FTNLYMPTRERHCRGSHMW | inactive
38 | FHTYIELLRALIAIRQGGSF | inactive
39 | DKDRVVSCMMTLLLSVGCAV | inactive
40 | VIALVSGEYSWFRILCTPFY | inactive
41 | VGSLIGMNYGF | inactive
42 | LRWLDVLDHTLDIYVSNESI | inactive
43 | AEYKNGTLRRRTRRVKSRRI | inactive
44 | FNRGKRCNSIRSLVPCNSPL | inactive
45 | AGWNMLVMTLCSTLFSQY | inactive
46 | HRELRVTVHQKFNLRMRVSD | inactive

Row | Substance | amyloid nucleation score
47 | RFIGFYPLLQGKNAASGRVL | inactive
48 | SCRIFDPMEPTTLCENSWSL | inactive
49 | FAQYYDSVPIDEDTIQIVHI | inactive
50 | FLTSVGIAYAKFRLGYSCLL | inactive
51 | YVVPRFTVMGEQKKCQWRSL | inactive
52 | AGLSQNRSRIRSY | -0.2 ± 0.81
53 | TRVFTGKQPENDRET | inactive
54 | TSRLFHKFLGYAPSRTNSSL | inactive
55 | RRTMFPAMIIS | inactive
56 | LFYIWQSFQFRN | inactive
57 | VSDKHVYCMEGCMP | inactive
58 | DKKGK | inactive
59 | MKLINRDFSL | inactive
60 | FALLMCDSHRSCNNVNNFVH | inactive
61 | DAFYIFWLDTSWFRWYAGTS | -0.131 ± 0.61
62 | RRGYLVYFGSTFYYSSNSFW | 0.468 ± 0.19
63 | KEFAIESTVLFYTVLLKAAH | inactive
64 | GTIRDSGSHYKVISF | inactive
65 | ATSCILMMDLSRYYVGLYHR | 0.88 ± 0.094
66 | TIGDACFVGKEAWAFANWEY | inactive
67 | RNSRTVRRDLQINCR | inactive
68 | GRYFSRNYAMCLLLFTTGEV | inactive
69 | VMCGNMWVYVKSLDT | 0.96 ± 0.11

Row | Substance | amyloid nucleation score
70 | RGAPVFCFYKWFSTATCSIA | inactive
71 | LLAWRHEMLMFVPDNLSYGG | inactive
72 | LTAYGNVNCV | inactive
73 | VFYGKGETYQEWHSLYFLKS | -0.067 ± 0.98
74 | CWRVYYLNVWVEVES | inactive
75 | KSWNGQMYCVASGKQKTIMY | inactive
76 | NDTFNAK | inactive
77 | HMCRTSCDRFGAIPNFMHWS | inactive
78 | FLNCFSC | 2.69 ± 0.054
79 | LMSSGVGLPFSDTSAWLIVW | inactive
80 | RKNVRMMA | inactive
81 | YGCKANSPLL | inactive
82 | TEPRMLGMCPAVVERMRVEG | inactive
83 | SVESQGLWGCCILSKR | 2.7 ± 0.06
84 | FYYTKDPRIGKNNYLCV | inactive
85 | HHRLSGEMSSWVATATCWVG | inactive
86 | WSPWHENWGLGMLQLKTSLW | inactive
87 | CVSGASKVNWGSCY | inactive
88 | ESLNGLNRSHA | inactive
89 | FLSLWLCSRCVSKSCGGFML | inactive
90 | LQRIGIYMTTFCENRCPDAE | inactive
91 | TSFGYNLGLRRCSYRMTAEW | 1.44 ± 0.13
92 | CRRVTKFESAFTWIFCKSCD | -0.013 ± 0.39

Row | Substance | amyloid nucleation score
93 | VMSKIISTQLVDMR | inactive
94 | DDVLYS | -0.19 ± 0.34
95 | LVGTRRLSSYRHRFKWITIG | inactive
96 | HPSTSTYRQRLPNCY | inactive
97 | LKRCRLQMAGYELSWDQGTM | inactive
98 | QFVCHHGSPAFPNDGVAKLL | inactive
99 | FISHSCYGWILRGCQTVGFW | -0.552 ± 0.98
100 | PGVYKNVAFLR | inactive
101 | CASSNRRESSYVLYSQWDIG | inactive
102 | CNHVLTNRLMHSSKNRCLFI | inactive
103 | FKYLVIVNNWG | 2.82 ± 0.071
104 | MPWMVATSNM | inactive
105 | LKRYDVQSSTGVNLTYGTYT | inactive
106 | YVRWCQWYGETDGPCCRNTV | inactive
107 | NMYLSMSLIFNTNYLPGMIS | inactive
108 | SHRNTKKFMEWIFLYFIPTM | 0.064 ± 0.62
109 | FVIVSL | 1.6 ± 0.069
110 | VIWAVPAH | inactive
111 | SPDGIGTMRGNFLGTPWRCR | inactive
112 | WCGVSLVL | inactive
113 | PPTLQMVTVVGPKGWKVMFS | inactive
114 | VHKFDSL | inactive
115 | SLGFGIDSSYGLLTGYKFFT | 0.264 ± 0.21

Row | Substance | amyloid nucleation score
116 | YRNMFQPRRNEAARQQLSST | inactive
117 | FCYLPRALCEVLNRCLLNSL | inactive
118 | IFEVYDVIT | inactive
119 | RKYSVG | inactive
120 | CYPVSVQYNGV | inactive
121 | GDITSEYV | inactive
122 | GSSSSVYWFLDGCDTLKRHM | inactive
123 | YQSGTLWCQCIWFKMRWRVH | inactive
124 | NLLDNRIFYHMD | inactive
125 | LSKVVLLVFKGTP | inactive
126 | NGFIILADCQMVCLRTSDLM | 1.77 ± 0.065
127 | RVDRLALLCSTSGINSDFGR | inactive
128 | VKCQRRH | inactive
129 | NKCSVMCHLDGVTWVPERAV | inactive
130 | HTVKEGSSNNVVRVRIARRF | inactive
131 | MYMIWSWCVQMLVNLNHAMA | inactive
132 | SQLRMFRVARVLIAEVNAP | inactive
133 | HYDFWIISYLPRSPGNMAID | inactive
134 | GYGVCNNDKCVQDAPGQPVS | -0.357 ± 1.1
135 | LHVSWGGLSGDTLFTRKVGV | inactive
136 | TPLFHWKNQVSRSFLVWNDL | inactive
137 | ETECVFSDYHSKVNICGGSL | inactive
138 | EMCINSVMMDATMSKH | inactive

Row | Substance | amyloid nucleation score
139 | RFKVT | inactive
140 | RPRRTCWM | inactive
141 | NFPNPVVSNLRAYFMD | -0.371 ± 0.96
142 | NLFLRFIVTLWDRFCPYFYQ | inactive
143 | IVSCLSCHLCLKCYSPLCVL | 0.851 ± 0.12
144 | SFFLIRG | inactive
145 | YALSVLVSRYQWSGWHYLYP | inactive
146 | NRAVNFIVWWMYL | inactive
147 | FPYLRRTMGVLIYQCVPIRG | inactive
148 | SKGGADNNWLVIDCPLNRRM | inactive
149 | LLTMHWVREWSDGLYCKGKL | inactive
150 | STLQRDIICKCIHAKVTVWV | inactive
151 | RCYNHFHSI | inactive
152 | HKPCRCKTMLWDLAIVGSLE | inactive
153 | VRSIRWKVT | inactive
154 | TIFKRSPACYYNGIHLWVTF | inactive
155 | SFMVIIYAVERVIVGITGKS | 0.611 ± 0.16
156 | SYTIVERAIRWYPPT | 0.966 ± 0.11
157 | EIQVV | inactive
158 | IKVEATRSAVASLRLHI | inactive
159 | CNPQTFSFVLMVRLCSKSGV | inactive
